Test results reported in patent US20250333514A1 (CDR LIFE, published 2025).

What was measured:
[1] = target: HLA-A*02:01 loaded with PRAME peptide L9R (human, pMHC ligand was biotinylated for capture (Example 5); site or tag of biotinylation not disclosed); assay: SPR (Biacore 8K), pMHC captured, Fab-scFv analyte
Protocol: (§1) Recombinantly produced hits in Fab-scFv format, as described in Example 4, were evaluated for their ability to bind HLA-A*02:01/PRAME antigen. Binding characterization was performed by surface plasmon resonance (SPR) using a Biacore™ 8k (Cytiva) device. Briefly, 3000 RU of Biotin CAPture reagent (Cytiva) was immobilized on a Series S Sensor Chip CAP (Cytiva) and the biotinylated ligand HLA-A*02:01/PRAME (SEQ ID NO: 68) was diluted in HPS-EP+ running buffer (TEKNOVA) and captured for 300 s at a flow rate of 2 μL/min at flow cell 2 resulting in a ligand capture level of >100 RU. Subsequently, at least three consecutive analyte injections were performed at suitable concentrations applying the single-cycle-kinetics mode at a flow rate of 30 μL/min with an association time of 90 s and the dissociation time set to >400 s. The chip surface was regenerated according to the manufacturer's instructions. After reference flow cell signal and blank injections subtraction, the data was fit to a 1:1 Langmuir binding model to determine the association rate constant kₐ and dissociation rate constant kd and calculate the equilibrium dissociation constant KD (kd/kₐ), also denoted as affinity, using the Biacore™ Insight Evaluation software.
(§2) The molecular recognition profile of monovalent (Fab-scFv) antigen binding molecules M3076 and M3287 for HLA-A*02:01/PRAME binding (equivalent bivalent (Fab-(scFv)₂) antigen binding molecules are M3167 and M3292, respectively) were determined by SPR measurements with HLA-A*02:01 complexes loaded with PRAME peptide or peptides containing a single amino acid substitution to alanine, arginine or aspartic acid. The kinetic parameters for each HLA-A*02:01 complex loaded with a peptide was determined by SPR, according to the previously described method in Example 5.

[2] = target: HLA-A*02:01 loaded with PRAME peptide G8R (human, pMHC ligand was biotinylated for capture (Example 5); site or tag of biotinylation not disclosed); assay: SPR (Biacore 8K), pMHC captured, Fab-scFv analyte
Protocol: as §1, §2

[3] = target: HLA-A*02:01 loaded with PRAME peptide I7R (human, pMHC ligand was biotinylated for capture (Example 5); site or tag of biotinylation not disclosed); assay: SPR (Biacore 8K), pMHC captured, Fab-scFv analyte
Protocol: as §1, §2

[4] = target: HLA-A*02:01 loaded with PRAME peptide L9D (human, Complex was biotinylated for capture on the SPR chip; site or tag of biotinylation not disclosed and not in the letters.); assay: SPR (Biacore 8K), pMHC captured, Fab-scFv analyte
Protocol: as §1, §2

[5] = target: HLA-A*02:01 loaded with PRAME peptide I7D (human, Complex was biotinylated for capture on the SPR chip; site or tag of biotinylation not disclosed and not in the letters.); assay: SPR (Biacore 8K), pMHC captured, Fab-scFv analyte
Protocol: as §1, §2

[6] = target: HLA-A*02:01 loaded with PRAME peptide G8D (human, Complex was biotinylated for capture on the SPR chip; site or tag of biotinylation not disclosed and not in the letters.); assay: SPR (Biacore 8K), pMHC captured, Fab-scFv analyte
Protocol: as §1, §2

[7] = target: HLA-A*02:01 loaded with PRAME peptide L6D (human, Complex was biotinylated for capture on the SPR chip; site or tag of biotinylation not disclosed and not in the letters.); assay: SPR (Biacore 8K), pMHC captured, Fab-scFv analyte
Protocol: as §1, §2

[8] = target: HLA-A*02:01 loaded with PRAME peptide H5D (human, pMHC ligand was biotinylated for capture (Example 5); site or tag of biotinylation not disclosed); assay: SPR (Biacore 8K), pMHC captured, Fab-scFv analyte
Protocol: as §1, §2

[9] = target: HLA-A*02:01 loaded with PRAME peptide S1D (human, pMHC ligand was biotinylated for capture (Example 5); site or tag of biotinylation not disclosed); assay: SPR (Biacore 8K), pMHC captured, Fab-scFv analyte
Protocol: as §1, §2

[10] = target: HLA-A*02:01 loaded with PRAME peptide L3D (human, pMHC ligand was biotinylated for capture (Example 5); site or tag of biotinylation not disclosed); assay: SPR (Biacore 8K), pMHC captured, Fab-scFv analyte
Protocol: as §1, §2

[11] = target: HLA-A*02:01 loaded with PRAME peptide Q4D (human, pMHC ligand was biotinylated for capture (Example 5); site or tag of biotinylation not disclosed); assay: SPR (Biacore 8K), pMHC captured, Fab-scFv analyte
Protocol: as §1, §2

[12] = target: HLA-A*02:01 loaded with PRAME peptide L2D (human, pMHC ligand was biotinylated for capture (Example 5); site or tag of biotinylation not disclosed); assay: SPR (Biacore 8K), pMHC captured, Fab-scFv analyte
Protocol: as §1, §2

[13] = target: T1, HLA-A*02:01/PRAME antigen (recombinant, … on HLA-A*02:01) (human, Complex biotinylated for SPR capture; site of biotin and any tag not stated, not in the letters.); assay: SPR (Biacore 8K), pMHC captured, Fab-scFv analyte
T1 construct: also called PRAME target; pMHC
Protocol: as §1, §2

[14] = target: T1, HLA-A*02:01/PRAME antigen (recombinant, …); assay: SPR (Biacore 8K), biotinylated pMHC captured, Fab-scFv analyte, single-cycle kinetics, 1:1 fit
Protocol: as §1

Kd [1] [nM]	binding result [2]	Kd [3] [nM]	Kd [4] [nM]	binding result [5]	binding result [6]	binding result [7]	Kd [8] [nM]	Kd [9] [nM]	Kd [10] [nM]	Kd [11] [nM]	binding result [12]	Kd [13] [nM]	Kd [14] [nM]	Binder
1.4	no binding	18	0.83	no binding	no binding	no binding	0.44	0.06	0.09	0.34	no binding	0.08	0.07	M3076 (bispecific antibody, Humanized variant of M2638, monovalent Fab-scFv; bivalent equivalent is M3167) heavy: EVQLVESGGGLVQPGGSLRLSCAASGFTFSTYAMNWVRQAPGKGLEWVGRIRSKYNNYATYYADSVKGRFTISRDDSKNTLYLQMNSLRAEDTAVYYCVRHGNFGDSYVSWFAYWGQGTLVTVSSASTKGPSVFPLAPSSKSTSGGTAALGCLVKDYFPEPVTVSWNSGALTSGVHTFPAVLQSSGLYSLSSVVTVPSSSLGTQTYICNVNHKPSNTKVDKKVEPKSCGGGGSDIQMTQSPSSLSASVGDRVTITCRSSQSVYNNLLGWYQQKPGKAPKLLIYSASTLASGVPSRFSGSGSGTDFTLTISSLQPEDFATYYCQGTYYNGDWYYPFGCGTKVEIKGGGGSGGGGSGGGGSGGGGSQVQLVESGGGSVQPGRSLRLSCAASGFDFSTYGVSWVRQAPGKCLEWIGYIDPVYGSTHYADSVKGRFTISRDNSKNTLYLQMNSLRAEDTASYYCVRDLYAGSSGYYMIYSLWGQGTSVTVSS light: QAVVTQEPSLTVSPGGTVTLTCGSSTGAVTTSNYANWVQQKPGKSPRGLIGGTNKRAPGVPARFSGSLLGGKAALTISGAQPEDEADYYCALWYSNHWVFGGGTKLTVLGQPKAAPSVTLFPPSSEELQANKATLVCLISDFYPGAVTVAWKADSSPVKAGVETTTPSKQSNNKYAASSYLSLTPEQWKSHRSYSCQVTHEGSTVEKTVAPTECS
6.1	no binding	83	2.7	no binding	no binding	no binding	4.6	0.53	0.63	3.4	no binding	0.57	0.57	M3287 (bispecific antibody, Humanized variant of M2638, monovalent Fab-scFv; bivalent equivalent is M3292) heavy: EVQLVESGGGLVQPGGSLRLSCAASGFTFSTYAMNWVRQAPGKGLEWVGRIRSKYNNYATYYADSVKGRFTISRDDSKNTLYLQMNSLRAEDTAVYYCVRHGNFGDSYVSWFAYWGQGTLVTVSSASTKGPSVFPLAPSSKSTSGGTAALGCLVKDYFPEPVTVSWNSGALTSGVHTFPAVLQSSGLYSLSSVVTVPSSSLGTQTYICNVNHKPSNTKVDKKVEPKSCGGGGSDIQMTQSPSSLSASVGDRVTITCRSSQSVYNNLLGWYQQKPGKAPKLLIYSASTLASGVPSRFSGSGSGTDFTLTISSLQPEDSATYYCQGTYYTGDWYYPFGCGTKVEIKGGGGSGGGGSGGGGSGGGGSQVQLVESGGGSVQPGRSLRLSCAASGFDFSTYGVSWVRQAPGKCLEWIGYIDPVYGSTHYADSVKGRFTISRDNSKNTLYLQMNSLRAEDTASYYCVRDLYAGSSGYYVIYSLWGQGTSVTVSS light: QAVVTQEPSLTVSPGGTVTLTCGSSTGAVTTSNYANWVQQKPGKSPRGLIGGTNKRAPGVPARFSGSLLGGKAALTISGAQPEDEADYYCALWYSNHWVFGGGTKLTVLGQPKAAPSVTLFPPSSEELQANKATLVCLISDFYPGAVTVAWKADSSPVKAGVETTTPSKQSNNKYAASSYLSLTPEQWKSHRSYSCQVTHEGSTVEKTVAPTECS
